Assay results taken from IntAct's records for PubMed 22796944.

Key:
cdc73_yeast CDC73 = cdc73_yeast CDC73 (UniProt Q06697)
rtf1_yeast RTF1 = rtf1_yeast RTF1 (UniProt P53064)
Sequence of rtf1_yeast RTF1 (P53064 whole entry): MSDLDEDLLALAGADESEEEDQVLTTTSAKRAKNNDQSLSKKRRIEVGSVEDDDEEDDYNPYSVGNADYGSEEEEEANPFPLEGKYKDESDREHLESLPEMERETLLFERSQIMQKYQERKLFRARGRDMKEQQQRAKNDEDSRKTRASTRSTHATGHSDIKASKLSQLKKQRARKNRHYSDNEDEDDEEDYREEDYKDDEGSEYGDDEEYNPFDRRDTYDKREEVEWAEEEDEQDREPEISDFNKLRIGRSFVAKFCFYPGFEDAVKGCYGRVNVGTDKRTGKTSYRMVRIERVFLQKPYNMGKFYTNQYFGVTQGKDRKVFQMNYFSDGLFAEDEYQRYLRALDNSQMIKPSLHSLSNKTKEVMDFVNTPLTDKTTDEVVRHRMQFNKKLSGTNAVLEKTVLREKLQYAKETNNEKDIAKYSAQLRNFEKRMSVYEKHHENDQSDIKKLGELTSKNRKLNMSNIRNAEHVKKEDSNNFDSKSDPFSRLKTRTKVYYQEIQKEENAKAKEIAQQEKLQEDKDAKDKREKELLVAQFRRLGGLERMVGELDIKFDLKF

Sequence of cdc73_yeast CDC73 (Q06697 whole entry): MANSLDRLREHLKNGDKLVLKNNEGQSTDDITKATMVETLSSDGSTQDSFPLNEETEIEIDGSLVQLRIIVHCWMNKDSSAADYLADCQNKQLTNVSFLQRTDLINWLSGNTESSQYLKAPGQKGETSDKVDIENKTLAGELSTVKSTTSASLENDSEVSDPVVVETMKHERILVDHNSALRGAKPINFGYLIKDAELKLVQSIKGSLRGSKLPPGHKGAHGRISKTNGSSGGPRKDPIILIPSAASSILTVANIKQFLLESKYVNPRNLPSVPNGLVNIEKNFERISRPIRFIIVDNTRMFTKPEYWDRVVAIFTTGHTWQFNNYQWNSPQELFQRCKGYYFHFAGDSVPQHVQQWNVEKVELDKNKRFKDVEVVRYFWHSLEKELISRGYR

Substance | effect of a mutation on the interaction (cdc73_yeast CDC73) | effect of a mutation on the interaction (rtf1_yeast RTF1)
DNA-directed RNA polymerase II subunit RPB1 (Saccharomyces cerevisiae), P04050 S1557D | decreasing interaction | disrupting interaction
DNA-directed RNA polymerase II subunit RPB1 (Saccharomyces cerevisiae), P04050 S1560D | decreasing interaction | disrupting interaction
